Results as given in patent publication US6982321.

Columns and labels:
[1] = molecular target: hen eggwhite lysozyme (hen) (UniProt P00698); experiment: fluorescence titration with lysozyme, 50 nM antibody, 25°
[2] = molecular target: hen eggwhite lysozyme (hen) (UniProt P00698); experiment: fluorescence quenching titration with hen eggwhite lysozyme
[3] = molecular target: Campath-1 antigen on human lymphocytes (human) (UniProt P31358); experiment: cell-based or functional assay
[4] = molecular target: partially purified Campath-1 antigen (obtained from a glycolipid extract from human spleen) (human) (UniProt P31358); experiment: direct binding assay on coated partially purified Campath-1 antigen, biotin anti-rat IgG2b detection; concentration at 50% maximal binding
[5] = molecular target: partially purified Campath-1 antigen (obtained from a glycolipid extract from human spleen) (human) (UniProt P31358); experiment: direct binding assay on coated partially purified Campath-1 antigen; concentration at 50% binding

Sequence of RaVHCAMP-RaIgG2B (P20761 whole entry): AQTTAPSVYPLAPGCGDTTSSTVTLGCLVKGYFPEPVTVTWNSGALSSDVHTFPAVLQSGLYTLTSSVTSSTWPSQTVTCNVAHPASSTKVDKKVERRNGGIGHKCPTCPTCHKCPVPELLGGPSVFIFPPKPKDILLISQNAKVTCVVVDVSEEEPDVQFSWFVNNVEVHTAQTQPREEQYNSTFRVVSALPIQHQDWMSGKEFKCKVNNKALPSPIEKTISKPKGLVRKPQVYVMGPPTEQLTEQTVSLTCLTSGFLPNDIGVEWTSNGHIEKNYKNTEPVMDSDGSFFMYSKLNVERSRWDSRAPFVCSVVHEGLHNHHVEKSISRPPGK
Sequence of hen eggwhite lysozyme (hen) (P00698 19-147 limits assumed): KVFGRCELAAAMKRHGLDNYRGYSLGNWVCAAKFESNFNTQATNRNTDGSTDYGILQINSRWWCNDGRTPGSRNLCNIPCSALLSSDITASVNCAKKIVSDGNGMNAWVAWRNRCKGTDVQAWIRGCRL
Sequence of HuVHCAMP(Ser27 to Phe, Ser30 to Thr)-RaIgG2B (P20761 whole entry): as the sequence (P20761 whole entry) above
Sequence of HuVHCAMP(Ser27 to Phe)-RaIgG2B (P20761 whole entry): as above
Sequence of HuVHCAMP-RaIgG2B (P20761 whole entry): as above

Row | Kd [2] | Concentration of antibody in ug/ml at 50% binding or lysis: complement lysis [3] | EC50 [4] | Substance | further results
1 | 14.4 nM |  |  | D1.3 (H2K2) (antibody) | equivalence point (binding sites per mole) (binding sites per mole) [1]: 1.8
2 | 9.2 nM |  |  | recombinant D1.3 (H*2K2) (reassociated) (antibody) | 

Second part, the substance before the results:

Row | Substance | Kd [2] | Concentration of antibody in ug/ml at 50% binding or lysis: complement lysis [3] | EC50 [4] | further results
3 | D1.3 (H2K2) (reassociated) (antibody) | 11.4 nM |  |  | 
4 | HuVHCAMP(Ser27 to Phe)-RaIgG2B (from UniProt P20761 1-333) (antibody) |  | 16.3 µg/mL | 1.8 µg/mL | 
5 | HuVHCAMP(Ser27 to Phe, Ser30 to Thr)-RaIgG2B (from UniProt P20761 1-333) (antibody) |  | 17.6 µg/mL | 2 µg/mL | 
6 | HuVHCAMP-RaIgG2B (from UniProt P20761 1-333) (antibody) |  |  | 27.3 µg/mL | 
7 | RaVHCAMP-RaIgG2B (from UniProt P20761 1-333) (antibody) |  | 2.1 µg/mL | 0.7 µg/mL | EC50 [5]: 1.01 µg/mL
